For experiment [1], the target named is T1, recombinant human ILT4 (LILRB2) (human, UniProt Q8N423 22-460).
T1 construct: Bought protein (Acro Biosystems or R&D Systems); also called ILTR4
Kind of experiment: SPR, Biacore T200, mAb captured on anti-Fc, ILT4 injected, medium resolution, 25 C. Put shortly: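 Mouse, chimeric or humanized mAbs captured on anti-Fc surfaces (CM4 chip); ILT4 injected at 101 to 0.79 nM, 2-fold series, 90 s association, 1200 s dissociation. Run at 25° C in HBS-P+ pH 7.4 with 100 μg/ml BSA; double-referenced global 1:1 fit with mass-transport term, KD=koff/kon.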

Experiment [2] has as its target T2, human ILT4 expressed on cells (human, UniProt Q8N423 22-597).
T2 construct: whole, on cells; The same entry is used for endogenous ILT4 of human macrophages; also called CHO-S/ILT4 cells; ILT4-CHO cells
Kind of experiment: flow cytometry, blockade of PE-HLA-A tetramer (5 ug/ml) binding to ILT4-CHO cells, Experiment 2 (table title prints HLA-G). A general note: Flow cytometry measures light scatter and fluorescence of single cells or particles in a stream.

For experiment [3], the target named is T2, human ILT4 expressed on cells. Kind of experiment: flow cytometry, blockade of PE-HLA-A tetramer (5 ug/ml) binding to ILT4-CHO cells, Experiment 3 (table title prints HLA-G).
The target of experiment [4] is T3, LILRA6 (human, UniProt Q6PI73 24-447).
T3 construct: Bought protein; limits of the extracellular domain are marked by bold type not visible here; whole entry named; also called recombinant human LILRA6
Kind of experiment: SPR, Biacore 8K, mAb captured on anti-human Fc, analyte injected. Here is the method: (§1) SPR was used to determine the specificity of four humanized anti-ILT4 mAbs for binding to LILRB2 and to determine any cross-reactivity with nine other LILRA and LILRB family members. LILR proteins were purchased from Acro Biosystems or R&D Systems, with sequence provided below. The studies were performed with a Biacore 8K instrument using a CM4 sensor chip with a running buffer of HBS-P+, 100 μg/mL BSA. Anti-human Fc specific capture surfaces were prepared using standard amine coupling chemistry. MAb was captured to flow cell 2 with flow cell 1 serving as the reference flow cell. Each of the nine family members and LILRB2 were injected at 100 nM at 30 μL/min for 90 sec with 240 sec of dissociation. […] All sensorgrams were doubled-referenced during processing of the data.
On the technique in general: Surface plasmon resonance follows binding to a sensor surface in real time, without labels.

For experiment [5], the target named is T4, LILRA4 (human, UniProt P59901 24-446).
T4 construct: Bought protein; limits of the extracellular domain are marked by bold type not visible here; whole entry named; also called recombinant human LILRA4
Described as above. Here is the method: as §1

Experiment [6] has as its target T5, LILRB4 (human, UniProt Q8NHJ6 22-259).
T5 construct: Bought protein; limits of the extracellular domain are marked by bold type not visible here; whole entry named; also called recombinant human LILRB4; ILT3
Described as above. Here is the method: as §1

In experiment [7] the target is T6, LILRB1 (human, UniProt Q8NHL6 24-461).
T6 construct: Bought protein; limits of the extracellular domain are marked by bold type not visible here; whole entry named; also called recombinant human LILRB1; ILT2
The experiment is described as above. The method, then:
as §1

In experiment [8] the target is T7, LILRA3 (human, UniProt Q8N6C8 24-439).
T7 construct: Bought protein; limits of the part used are marked by bold type not visible here; whole entry named; also called recombinant human LILRA3
The description is as above. Here is the method:
as §1

Experiment [9] deals with T8, LILRA1 (human, UniProt O75019 17-461).
T8 construct: Bought protein; limits of the extracellular domain are marked by bold type not visible here; whole entry named; also called recombinant human LILRA1
Described as above. The method, then: as §1

The target in experiment [10] is T9, LILRA5 (human, UniProt A6NI73 42-268).
T9 construct: Bought protein; limits of the extracellular domain are marked by bold type not visible here; whole entry named; also called recombinant human LILRA5
The description is as above. Here is the method: as §1

The target of experiment [11] is T10, LILRA2 (human, UniProt Q8N149 24-449).
T10 construct: Bought protein; limits of the extracellular domain are marked by bold type not visible here; whole entry named; also called recombinant human LILRA2
The description is as above. Here is the method: as §1

Experiment [12] concerns the target T11, LILRB3 (human, UniProt O75022 24-443).
T11 construct: Bought protein; limits of the extracellular domain are marked by bold type not visible here; whole entry named; also called recombinant human LILRB3; ILT5
Described as above. The method, then:
as §1

The target in experiment [13] is T2, human ILT4 expressed on cells. Kind of experiment: flow cytometry, direct binding of AF647-labelled antibody (0-10 µg/ml) to ILT4-CHO cells. The method, then:
(§2) AF647-Hz45.01-LALA and AF647-Hz156.03-LALA at various concentrations (0-10 μg/ml) were incubated with ILT4-CHO cells and analyzed by flow cytometry.

The target in experiment [14] is T1, recombinant human ILT4 (LILRB2). Kind of experiment: SPR, high resolution kinetics, triplicate, LALA antibody; 95% CI in parentheses.
Experiment [15] concerns the target T2, human ILT4 expressed on cells. In words: flow cytometry, AF647-labelled mAb on ILT4-CHO cells. The method, then: as §2
The target is the same in experiment [16]. In words: flow based HLA-G blocking assay.

T2 sequence (Q8N423 22-597): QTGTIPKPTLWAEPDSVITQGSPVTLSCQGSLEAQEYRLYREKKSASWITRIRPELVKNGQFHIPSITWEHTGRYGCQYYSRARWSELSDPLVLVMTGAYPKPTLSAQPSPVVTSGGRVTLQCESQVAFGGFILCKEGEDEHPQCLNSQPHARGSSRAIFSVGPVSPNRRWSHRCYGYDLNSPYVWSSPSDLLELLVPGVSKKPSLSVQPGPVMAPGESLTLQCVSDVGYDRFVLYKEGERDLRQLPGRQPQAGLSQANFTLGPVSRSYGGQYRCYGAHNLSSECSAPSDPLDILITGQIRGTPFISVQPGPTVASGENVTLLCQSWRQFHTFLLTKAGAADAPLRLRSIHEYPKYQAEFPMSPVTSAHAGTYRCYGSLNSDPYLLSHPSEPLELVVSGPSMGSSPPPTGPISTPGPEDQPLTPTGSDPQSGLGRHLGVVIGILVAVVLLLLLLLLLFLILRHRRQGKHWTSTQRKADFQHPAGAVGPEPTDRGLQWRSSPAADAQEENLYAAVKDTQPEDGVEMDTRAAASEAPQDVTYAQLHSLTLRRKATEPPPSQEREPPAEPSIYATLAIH
T1 sequence (Q8N423 other isoform, or with tags, fused parts or gaps limits assumed): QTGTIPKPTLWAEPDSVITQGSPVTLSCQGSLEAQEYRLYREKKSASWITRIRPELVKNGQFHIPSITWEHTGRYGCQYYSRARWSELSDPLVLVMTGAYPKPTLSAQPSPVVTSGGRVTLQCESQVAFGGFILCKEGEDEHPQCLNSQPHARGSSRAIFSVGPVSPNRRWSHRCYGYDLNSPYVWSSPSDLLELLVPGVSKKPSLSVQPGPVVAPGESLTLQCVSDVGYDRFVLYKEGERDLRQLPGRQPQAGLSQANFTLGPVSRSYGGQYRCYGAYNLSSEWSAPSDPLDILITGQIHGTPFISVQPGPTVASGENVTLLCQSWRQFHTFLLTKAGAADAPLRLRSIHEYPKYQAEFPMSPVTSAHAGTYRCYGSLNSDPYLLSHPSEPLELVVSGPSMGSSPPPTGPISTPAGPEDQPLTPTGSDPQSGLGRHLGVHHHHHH
T11 sequence (O75022 other isoform, or with tags, fused parts or gaps): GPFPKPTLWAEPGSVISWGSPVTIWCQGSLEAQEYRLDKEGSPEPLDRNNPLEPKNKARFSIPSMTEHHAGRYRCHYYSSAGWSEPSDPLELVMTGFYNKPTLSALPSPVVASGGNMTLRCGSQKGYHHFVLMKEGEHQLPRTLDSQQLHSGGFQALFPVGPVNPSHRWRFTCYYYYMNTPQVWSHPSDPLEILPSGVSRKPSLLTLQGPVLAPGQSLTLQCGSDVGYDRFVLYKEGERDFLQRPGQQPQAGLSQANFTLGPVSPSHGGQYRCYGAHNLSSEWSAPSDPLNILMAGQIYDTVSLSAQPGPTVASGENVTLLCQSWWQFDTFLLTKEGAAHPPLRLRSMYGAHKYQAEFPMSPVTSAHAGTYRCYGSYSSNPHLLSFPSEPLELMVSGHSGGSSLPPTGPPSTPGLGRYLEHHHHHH
T10 sequence (Q8N149 other isoform, or with tags, fused parts or gaps): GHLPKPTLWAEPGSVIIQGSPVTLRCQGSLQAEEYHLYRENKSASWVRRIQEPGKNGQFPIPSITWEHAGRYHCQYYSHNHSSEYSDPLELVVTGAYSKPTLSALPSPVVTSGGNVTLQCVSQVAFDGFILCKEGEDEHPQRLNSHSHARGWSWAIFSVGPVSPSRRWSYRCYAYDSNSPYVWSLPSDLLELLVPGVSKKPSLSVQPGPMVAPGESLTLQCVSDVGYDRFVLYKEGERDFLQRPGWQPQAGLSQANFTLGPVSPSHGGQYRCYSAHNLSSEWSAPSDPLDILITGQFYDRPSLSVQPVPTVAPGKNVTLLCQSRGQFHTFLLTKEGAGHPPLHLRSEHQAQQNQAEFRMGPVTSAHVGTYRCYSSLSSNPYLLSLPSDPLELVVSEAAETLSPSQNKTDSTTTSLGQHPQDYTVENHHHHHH
T9 sequence (A6NI73 other isoform, or with tags, fused parts or gaps): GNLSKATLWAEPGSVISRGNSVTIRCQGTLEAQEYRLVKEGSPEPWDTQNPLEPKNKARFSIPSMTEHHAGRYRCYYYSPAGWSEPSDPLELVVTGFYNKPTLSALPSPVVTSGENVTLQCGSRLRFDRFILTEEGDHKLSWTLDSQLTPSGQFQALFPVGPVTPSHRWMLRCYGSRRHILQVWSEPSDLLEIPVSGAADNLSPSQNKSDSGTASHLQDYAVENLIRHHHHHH
T7 sequence (Q8N6C8 24-439 A105V limits assumed): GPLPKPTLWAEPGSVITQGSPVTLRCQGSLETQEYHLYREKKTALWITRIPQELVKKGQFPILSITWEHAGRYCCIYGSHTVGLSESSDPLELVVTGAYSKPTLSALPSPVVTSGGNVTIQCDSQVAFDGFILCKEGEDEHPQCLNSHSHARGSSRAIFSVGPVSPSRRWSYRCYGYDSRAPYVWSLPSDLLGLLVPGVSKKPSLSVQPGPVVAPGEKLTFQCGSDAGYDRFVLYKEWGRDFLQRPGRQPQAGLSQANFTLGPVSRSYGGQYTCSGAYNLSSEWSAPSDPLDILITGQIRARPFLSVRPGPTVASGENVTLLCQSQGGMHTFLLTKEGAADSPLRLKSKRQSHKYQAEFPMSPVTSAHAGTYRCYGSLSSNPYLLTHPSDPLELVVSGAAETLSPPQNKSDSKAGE
T6 sequence (Q8NHL6 other isoform, or with tags, fused parts or gaps): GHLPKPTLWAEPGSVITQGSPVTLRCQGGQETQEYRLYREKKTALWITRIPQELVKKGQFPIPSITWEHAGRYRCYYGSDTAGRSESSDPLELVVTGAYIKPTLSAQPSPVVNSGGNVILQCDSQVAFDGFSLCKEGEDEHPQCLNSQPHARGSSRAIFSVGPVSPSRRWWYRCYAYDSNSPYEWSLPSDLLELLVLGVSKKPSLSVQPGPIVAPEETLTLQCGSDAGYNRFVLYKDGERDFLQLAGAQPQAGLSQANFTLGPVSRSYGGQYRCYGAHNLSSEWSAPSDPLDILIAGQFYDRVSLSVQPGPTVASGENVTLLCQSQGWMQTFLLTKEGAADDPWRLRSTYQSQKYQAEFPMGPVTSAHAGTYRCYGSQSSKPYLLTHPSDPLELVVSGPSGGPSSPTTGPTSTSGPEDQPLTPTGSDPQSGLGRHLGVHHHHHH
T3 sequence (Q6PI73 other isoform, or with tags, fused parts or gaps): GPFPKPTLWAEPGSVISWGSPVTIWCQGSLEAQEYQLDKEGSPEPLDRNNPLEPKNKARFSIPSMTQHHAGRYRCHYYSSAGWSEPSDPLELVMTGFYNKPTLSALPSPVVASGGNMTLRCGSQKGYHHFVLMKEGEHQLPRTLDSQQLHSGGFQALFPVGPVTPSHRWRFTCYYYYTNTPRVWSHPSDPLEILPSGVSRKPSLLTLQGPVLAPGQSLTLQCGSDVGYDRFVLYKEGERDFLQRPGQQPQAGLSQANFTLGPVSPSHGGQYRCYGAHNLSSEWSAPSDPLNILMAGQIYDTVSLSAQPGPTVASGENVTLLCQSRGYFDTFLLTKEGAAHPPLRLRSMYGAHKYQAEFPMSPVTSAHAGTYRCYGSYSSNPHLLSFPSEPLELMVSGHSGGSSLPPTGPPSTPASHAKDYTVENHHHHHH
T5 sequence (Q8NHJ6 other isoform, or with tags, fused parts or gaps): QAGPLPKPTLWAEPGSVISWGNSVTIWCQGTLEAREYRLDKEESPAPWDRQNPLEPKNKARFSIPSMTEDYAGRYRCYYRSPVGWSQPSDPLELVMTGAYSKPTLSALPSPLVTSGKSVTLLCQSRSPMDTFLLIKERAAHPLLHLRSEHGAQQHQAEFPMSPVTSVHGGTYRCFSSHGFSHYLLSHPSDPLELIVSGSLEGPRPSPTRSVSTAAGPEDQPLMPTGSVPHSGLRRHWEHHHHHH
T8 sequence (O75019 other isoform, or with tags, fused parts or gaps): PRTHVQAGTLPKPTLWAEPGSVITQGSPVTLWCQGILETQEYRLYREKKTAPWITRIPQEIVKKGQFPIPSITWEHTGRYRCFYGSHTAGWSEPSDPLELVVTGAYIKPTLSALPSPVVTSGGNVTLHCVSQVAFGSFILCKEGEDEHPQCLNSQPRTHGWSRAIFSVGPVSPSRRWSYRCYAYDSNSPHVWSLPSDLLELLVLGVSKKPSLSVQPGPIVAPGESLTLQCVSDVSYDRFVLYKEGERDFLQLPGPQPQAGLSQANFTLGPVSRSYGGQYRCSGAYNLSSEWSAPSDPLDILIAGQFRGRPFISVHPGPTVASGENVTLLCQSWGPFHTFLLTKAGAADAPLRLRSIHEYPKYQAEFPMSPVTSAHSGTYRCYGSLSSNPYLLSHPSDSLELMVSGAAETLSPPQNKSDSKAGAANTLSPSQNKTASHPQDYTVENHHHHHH
T4 sequence (P59901 other isoform, or with tags, fused parts or gaps): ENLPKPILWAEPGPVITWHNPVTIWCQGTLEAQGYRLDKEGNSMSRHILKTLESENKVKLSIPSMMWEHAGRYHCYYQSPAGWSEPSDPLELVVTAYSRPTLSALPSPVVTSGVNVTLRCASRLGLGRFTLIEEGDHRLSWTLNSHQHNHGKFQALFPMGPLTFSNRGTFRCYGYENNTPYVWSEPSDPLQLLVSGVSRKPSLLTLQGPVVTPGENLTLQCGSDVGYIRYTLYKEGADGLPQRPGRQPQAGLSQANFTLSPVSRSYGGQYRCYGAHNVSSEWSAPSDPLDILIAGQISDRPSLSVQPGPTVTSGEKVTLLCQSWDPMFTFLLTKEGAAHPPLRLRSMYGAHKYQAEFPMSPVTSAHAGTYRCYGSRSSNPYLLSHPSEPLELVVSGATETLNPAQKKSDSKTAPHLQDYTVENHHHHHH

B1: Hz45.01-LALA (antibody, human IgG1, kappa, L234A L235A, V domains shown)
VH: QVQLVQSGAEVKKPGASVKVSCKASGYTFTDYYMNWVRQAPGQRLEWIGDINPNNGGTSYNQKFKGRATITVDTSASTAYMELSSLRSEDTAVYYCARGGAELTGTYWYFDVWGQGTTVTVSS
VL: DIQMTQSPSSLSASVGDRVTITCRASENIYSNLAWYQQKPGKAPKVLVYGATNLADGVPSRFSGSGSGTEYTLTISSLQPEDFATYYCQHFWDSPFTFGGGTKVEIKR
notes: Humanized L45S4, human IgG1 L234A/L235A, kappa; also called Humanized 45_01; Hu IgG 45_01 LALA
Take B1: the dissociation constant Kd – broadly, a measure of binding affinity in units of concentration – in [1] came to 1.27 nM. Also, the koff (as a rule, the first-order rate constant of dissociation) in experiment [1] was 0.000418 s⁻¹. For the same molecule, the on-rate constant (kon) (as a rule, a measure of how fast the partners come together) in experiment [1] was found to be 330000 M⁻¹ s⁻¹; in experiment [14] it was 3.45e+06 M⁻¹ s⁻¹. The values for the 50% inhibitory concentration (IC50) in experiment [2], in experiment [3] and in [16] were 0.122 mg/L, 0.109 mg/L and 0.092 mg/L, respectively. In addition, the binding result in experiment [4], in [5], in [6], in experiment [7], in [8] and in experiment [9] was “no binding (tested: 100 nM)” each time. The binding result in experiment [10], in experiment [11] and in experiment [12] was “no binding (tested: 100 nM)” throughout. The EC50 (read off the curve) (in general, the concentration giving half of the maximal effect) in experiment [13] was ~0.2 mg/L. It took 162 mg/L to reach a half-maximal effect in experiment [15] (EC50).

B2: Hz156.03-LALA (antibody, human IgG1, kappa, L234A L235A, V domains shown)
VH: QVQLVQSGAEVKKPGSSVKVSCKASGYTFTDYYMNWVRQAPGQGLEWIARIYPGVYRTHYNEKFKDRVTLTADKSTSTAYMELSSLRSEDTAVYYCARSGYYGGTYEEDAMDYWGQGTTVTVSS
VL: DIQMTQSPSSLSASVGDRVTITCRASENIYSNLAWYQQKPGKAPKLLVYAATSLADGVPSRFSGSGSGTDYTLTISSLQPEDFATYYCQNFWDTPYTFGQGTKVEIKR
notes: Humanized L156S3, human IgG1 L234A/L235A, kappa
In the case of B2, the values for the kon in experiment [1] and in [14] were 497000 M⁻¹ s⁻¹ and 3.22e+06 M⁻¹ s⁻¹, respectively. Further, the values for the IC50 in experiment [2], in [3] and in [16] were 0.152 mg/L, 0.164 mg/L and 0.212 mg/L, respectively. Also, the binding result in experiment [4], in experiment [5], in experiment [6], in experiment [7], in [8] and in [9] was “no binding (tested: 100 nM)” throughout. For the same molecule, the binding result in experiment [10], in [11] and in [12] was “no binding (tested: 100 nM)” throughout. Also, the “EC50 (read off the curve)” value in [13] was ~0.2 mg/L. Moreover, a half-maximal response in experiment [15] (EC50) required 248 mg/L.

(Values after US20260167714A1 (COHERUS BIOSCIENCES, published 2026).)
